From publication PMC11273609, “Single-Molecule Detection of the Encounter and Productive Electron Transfer Complexes of a Photosynthetic Reaction Center” (Journal of the American Chemical Society, 2024)

What was measured:
Settings in all cases: both partners purified
[1] = target: T1, wild-type reaction center-light harvesting complex 1 (RC-LH1), His10-tag on the RC H-subunit (Rhodobacter sphaeroides, UniProt P0C0Y7 1-260; P0C0Y8 1-282; P0C0Y9 1-308; P0C0X9 1-55; P0C0Y1 7-49; P13402 1-82); assay: single-molecule force spectroscopy (AFM, PF-QNM); cyt c2-His6 on the AFM probe, His10-tagged RC-LH1 on the SiOx substrate; oxidized RC-LH1, oxidized cyt c2 (probe treated with 0.8 mM potassium ferricyanide); 10 mM HEPES pH 7.4, 10 mM NaCl
[2] = target: T2, D(M184)K mutant RC-LH1 complex, His10-tag on the RC H-subunit (Rhodobacter sphaeroides, UniProt P0C0Y7 1-260; P0C0Y8 1-282; P0C0Y9 1-308; P0C0X9 1-55; P0C0Y1 7-49; P13402 1-82, D(M184)K); assay: as above
[3] = target: T3, N(M188)D mutant RC-LH1 complex, His10-tag on the RC H-subunit (Rhodobacter sphaeroides, UniProt P0C0Y7 1-260; P0C0Y8 1-282; P0C0Y9 1-308; P0C0X9 1-55; P0C0Y1 7-49; P13402 1-82, N(M188)D); assay: as above
[4] = target: T4, Q(L264)E mutant RC-LH1 complex, His10-tag on the RC H-subunit (Rhodobacter sphaeroides, UniProt P0C0Y7 1-260; P0C0Y8 1-282; P0C0Y9 1-308; P0C0X9 1-55; P0C0Y1 7-49; P13402 1-82, Q(L264)E); assay: as above
[5] = target: T1, wild-type reaction center-light …; assay: single-molecule force spectroscopy (AFM, PF-QNM); cyt c2-His6 on the AFM probe via Ni2+-NTA and a PEG linker, His10-tagged RC-LH1 or RC-only complexes on a Ni2+-NTA SiOx substrate; oxidized RC, reduced cyt c2; 10 mM HEPES pH 7.4, 10 mM NaCl
[6] = target: T2, D(M184)K mutant RC-LH1 complex, …; assay: as above
[7] = target: T3, N(M188)D mutant RC-LH1 complex, …; assay: as above
[8] = target: T4, Q(L264)E mutant RC-LH1 complex, …; assay: as above

B1: cytochrome c2 (cyt c2), His6-tagged (natural protein)
chain: QEGDPEAGAKAFNQCQTCHVIVDDSGTTIAGRNAKTGPNLYGVVGRTAGTQADFKGYGEGMKEAGAKGLAWDEEHFVQYVQDPTKFLKEYTGDAKAKGKMTFKLKKEADAHNIWAYLQQVAVRP
notes: cytochrome c2 of Rhodobacter sphaeroides (gene cycA); the His6-tag follows the C-terminal residue Pro124; Carries a heme cofactor; used pre-reduced (dithionite and phenazine methosulfate) or pre-oxidized (ferricyanide), the redox state is told in the assay; also called reduced cyt c2; oxidized cyt c2; not shown: His6, C-terminal, kept
- cumulative interaction probability [1]: 32%
- cumulative interaction probability [2]: 20%
- cumulative interaction probability [3]: 37%
- cumulative interaction probability [4]: 36%
- cumulative interaction probability [5]: ~34%
- cumulative interaction probability [6]: 24%
- cumulative interaction probability [7]: 40%
- cumulative interaction probability [8]: 39%
